Data published in patent US6919086B1, “Graminae pollen allergen mutants for specific immunotherapy, and production and use of the same” (Merck Patent Gesellschaft mit, priority 1997, dated 2005).
Entries after “also recorded” stand apart in the source; their conditions may differ. Like-named read-outs stand apart in the source and are kept apart here.

What was measured:
[1] = test system: IgE antibodies of allergic patients; experiment: EAST inhibition test (IgE reactivity / allergenicity); type: binding, human; conditions: for IC50: read-out: Inhibition value 50% (concentration of the inhibitor at 50% inhibition); for Allergenic potency (Prel) 25%: relative to native Phl p 5b at 25% inhibition; for Allergenic potency (Prel) 50%: relative to native Phl p 5b at 50% inhibition; for EAST inhibition curve / inhibitory effect (in words): serum pool Bor 18/100 (20 donors), FIG. 1; for Allergenicity from EAST inhibition curves (in words): serum pool We 6/97 and individual sera II3, II12, II17, FIGS. 2-5
Protocol: The effects of the induced mutations on the allergenicity, i.e. the ability to bind to the IgE antibodies of allergic patients, of the modified recombinant allergens is determined qualitatively and quantitatively by means of the EAST inhibition test. […] The extent of the immunochemical relatedness (cross reactivity) can also be quantified. This EAST inhibition test only takes the reaction with IgE antibodies into account.
The binding of the allergens by the IgE antibodies is the basic prerequisite for the allergen-specific activation of the effector cells (mast cells, basophils, inter alia) in type I allergy. The allergen-specific inhibition of the enzyme/allergen sorbent test (EAST) is the best means for qualitatively and quantitatively recording the binding of the allergens to IgE anti-bodies. The EAST inhibition test is carried out as follows. Microtitre plates are coated with allergen (natural or recombinant Ph1 p 5 or Ph1 p 5b) (1 μg/ml). After the unbound allergen molecules have been removed by washing, non-specific plastic binding sites are blocked with bovine serum albumin (0.5%). […] from allergic patients, as a representative pool of 10-30 donors or as an individual serum, is incubated, in a suitable dilution, with the allergen-coated microtritre plates. The bound allergen-specific IgE antibodies are quantified using enzyme-coupled anti-IgE antibodies (e.g. alk. phosphatase-a-IgE antibodies). This binding is inhibited by soluble allergen or the substance to be tested (allergen mutants) in dependence on the concentration. The inhibition curve obtained with the purified natural allergen Ph1 p 5b is used as the reference.

[2] = biological target: IgE antibodies of the individual allergic patient serum II/3; experiment: EAST inhibition, individual serum II/3
[3] = biological target: IgE antibodies of the individual allergic patient serum II/17; experiment: EAST inhibition, individual serum II/17
[4] = test system: basophils from the blood of an allergic patient; experiment: Histamine release from basophils; type: cell-based, human
Protocol: Apart from the binding of the allergen to the spec. IgE, the allergen-induced, IgE-mediated release of histamine by allergic effect or cells is of pathophysiological importance for the allergic reaction (side effect). The reactivity of the effector cells (basophils and mast cells) and the epitope specificity of the IgE antibodies which are bound by way of FcεRI are also of importance in this context. For this reason, the modified recombinant allergen variants are tested for their ability to induce histamine release by the degranulation of IgE-loaded basophils which are isolated from the blood of allergic patients.
Before the histamine release test was carried out, the basophilic leucocytes from the EDTA blood of an allergic patient ([…]) were first of all enriched by means of dextran sedimentation and then adjusted to a final concentration of 100,000 basophils/ml. In order to release histamine from the basophils, 200 μl of the cell suspension were in each case incubated, at 37° C. for 40 min, with 50 μl of antigen solution. For this, the rPh1 […] p 5b and the mutants were employed in varying concentrations (of 10^−5-10^−12 M). The histamine which was released was determined in the respective supernatants using the Pharmacia methylhistamine RIA in accordance with the manufacturer's instructions.

[5] = allergic patient serum pool Bor 18/100
[6] = allergic patient serum pool We 6/97
[7] = individual allergic patient serum II/3
[8] = individual allergic patient serum II/12
[9] = individual allergic patient serum II/17

Row | Molecule | Inhibition value 25% (concentration of the inhibitor at 25% inhibition) [1, 5] | IC50 [1, 5] | Inhibition value 25% (concentration of the inhibitor at 25% inhibition) [1, 6] | IC50 [1, 6] | Inhibition value 25% (concentration of the inhibitor at 25% inhibition) [1, 7] | IC50 [1, 7] | Inhibition value 25% (concentration of the inhibitor at 25% inhibition) [1, 8] | Inhibition value 25% (concentration of the inhibitor at 25% inhibition) [1, 9] | IC50 [1, 9] | Allergenic potency (Prel) 25% ([1]; individual serum II/3) | Allergenic potency (Prel) 25% ([1]; individual serum II/12) | Allergenic potency (Prel) 25% ([1]; individual serum II/17) | Allergenic potency (Prel) 25% ([1]; serum pool Bor 18/100) | Allergenic potency (Prel) 25% ([1]; serum pool We 6/97) | Allergenic potency (Prel) 50% ([1]; individual serum II/3) | Allergenic potency (Prel) 50% ([1]; individual serum II/12) | Allergenic potency (Prel) 50% ([1]; individual serum II/17) | Allergenic potency (Prel) 50% ([1]; serum pool Bor 18/100) | Allergenic potency (Prel) 50% ([1]; serum pool We 6/97) | EAST inhibition curve / inhibitory effect (in words) [1] | also measured
1 | rPhl p 5b point mutant PM1 (N32D, D49L, K50A) (protein) ADAGYAPATPAAAGAAAGKATTEEQKLIEDIDVGFKAAVAAAASVPAALAFKTFEAAFTSSSKAAAAKAPGLVPKLDAAYSVAYKAAVGATPEAKFDSFVASLTEALRVIAGALEVHAVKPVTEEPGMAKIPAGELQIIDKIDAAFKVAATAAATAPADDKFTVFEAAFNKAIKESTGGAYDTYKCIPSLEAAVKQAYAATVAAAPQVKYAVFEAALTKAITAMSEVQKVSQPATGAATVAAGAATTAAGAASGAATVAAGGYKV | 4.5e-10 mol/L | 12 nM | 1.2e-09 mol/L | 120 nM | 8.6e-10 mol/L | 19 nM | 1.3e-09 mol/L | 6.4e-10 mol/L | 2.2 nM | 0.5950 | 0.391 | 0.336 | 0.739 | 0.415 | 0.3140 | 0.082 | 0.1190 | 0.3490 | 0.0510 | exhibits this effect in the higher range to a somewhat greater degree | IC50 [1, 8]: 83 nM; Allergenicity from EAST inhibition curves (in words) [1]: either no reduction, or only a reduction which is for the most part slight; IC50 [2]: 19 nM; allergenic potency (Prel) at 25% inhibition (relative to native Phl p 5b) [2]: 0.595; allergenic potency (Prel) at 50% inhibition (relative to native Phl p 5b) [2]: 0.314; inhibition value (inhibitor concentration at 25% inhibition) [2]: 8.6e-10 mol/L; IC50 [3]: 2.2 nM; allergenic potency (Prel) at 25% inhibition (relative to native Phl p 5b) [3]: 0.336; allergenic potency (Prel) at 50% inhibition (relative to native Phl p 5b) [3]: 0.119; inhibition value (inhibitor concentration at 25% inhibition) [3]: 6.4e-10 mol/L
2 | rPhl p 5b point mutant PM3 (A13C) (protein) ADAGYAPATPAACGAAAGKATTEEQKLIEDINVGFKAAVAAAASVPAADKFKTFEAAFTSSSKAAAAKAPGLVPKLDAAYSVAYKAAVGATPEAKFDSFVASLTEALRVIAGALEVHAVKPVTEEPGMAKIPAGELQIIDKIDAAFKVAATAAATAPADDKFTVFEAAFNKAIKESTGGAYDTYKCIPSLEAAVKQAYAATVAAAPQVKYAVFEAALTKAITAMSEVQKVSQPATGAATVAAGAATTAAGAASGAATVAAGGYKV | 2e-10 mol/L | 4.8 nM | 8.3e-10 mol/L | 30 nM | 5.5e-10 mol/L | 15 nM | 1.3e-09 mol/L | 2.5e-10 mol/L | 5.5 nM | 0.9220 | 0.389 | 0.855 | 1.641 | 0.611 | 0.3990 | 0.075 | 0.4680 | 0.8640 | 0.2030 | binding curves which are similar to that obtained with natural Ph1 p 5b | IC50 [1, 8]: 91 nM; Allergenicity from EAST inhibition curves (in words) [1]: either no reduction, or only a reduction which is for the most part slight; IC50 [2]: 15 nM; allergenic potency (Prel) at 25% inhibition (relative to native Phl p 5b) [2]: 0.922; allergenic potency (Prel) at 50% inhibition (relative to native Phl p 5b) [2]: 0.399; inhibition value (inhibitor concentration at 25% inhibition) [2]: 5.5e-10 mol/L; IC50 [3]: 5.5 nM; allergenic potency (Prel) at 25% inhibition (relative to native Phl p 5b) [3]: 0.855; allergenic potency (Prel) at 50% inhibition (relative to native Phl p 5b) [3]: 0.468; inhibition value (inhibitor concentration at 25% inhibition) [3]: 2.5e-10 mol/L
3 | DM1: deletion mutant of rPhl p 5b (ΔK50-P132, D49→L), SEQ ID NO 91 (protein) ADAGYAPATPAAAGAAAGKATTEEQKLIEDINVGFKAAVAAAASVPAALAGELQIIDKIDAAFKVAATAAATAPADDKFTVFEAAFNKAIKESTGGAYDTYKCIPSLEAAVKQAYAATVAAAPQVKYAVFEAALTKAITAMSEVQKVSQPATGAATVAAGAATTAAGAASGAATVAAGGYKV | 8.6e-09 mol/L | 28 nM | 2.3e-08 mol/L | 17000 nM | 1.2e-08 mol/L | 17 nM | 1.5e-05 mol/L | 6.5e-09 mol/L | 2 nM | 0.0420 | 3.4 × 10^−5 | 0.033 | 0.039 | 0.022 | 0.0035 | 1.0 × 10^−10 | 0.0010 | 0.0015 | 0.0004 | markedly decreased inhibitory effect | Allergenicity / IgE reactivity, overall assessment (in words) ([1]; all serum pools and individual sera, Prel values): marked reduction in allergenicity; also recorded: greatly reduced, it is still detectable; Allergenicity from EAST inhibition curves (in words) [1]: greatly reduced allergenicity; Concentration required to bring about a 30% histamine release, fold higher than wild type rPhl p 5b [4]: 20 fold
